Experimental data as given in the Immune Epitope Database (IEDB).

Key:
HLA-B*18:01 [1] = test: IEDB peptide-MHC binding, purified MHC/direct/fluorescence; filed as Kd, often an IC50 or EC50 that approximates it; ≥ and ≤ were set here for values at or beyond the usual limits of such assays; conditions: source organism: Dengue virus
HLA-B*44:02 [2] = test: as above
HLA-B*40:01 [3] = test: IEDB peptide-MHC binding, purified MHC/competitive/radioactivity; filed as Kd, often an IC50 or EC50 that approximates it; ≥ and ≤ were set here for values at or beyond the usual limits of such assays; conditions: source organism: Dengue virus 1 Singapore/S275/1990
HLA-B*44:02 [4] = test: as above
HLA-B*44:03 = test: as above
HLA-B*15:03 = test: as above; conditions: source organism: Vaccinia virus WR
HLA-A*02:01 [5] = test: IEDB peptide-MHC binding, purified MHC/competitive/fluorescence; ≥ and ≤ were set here for values at or beyond the usual limits of such assays
HLA-A*24:02 = test: as above
HLA-B*15:01 [6] = test: as above
HLA-A*03:01 [7] = test: IEDB peptide-MHC binding, purified MHC/competitive/fluorescence; filed as Kd, often an IC50 or EC50 that approximates it; ≥ and ≤ were set here for values at or beyond the usual limits of such assays
HLA-B*08:01 [8] = test: IEDB peptide-MHC binding, purified MHC/competitive/radioactivity; filed as Kd, often an IC50 or EC50 that approximates it; ≥ and ≤ were set here for values at or beyond the usual limits of such assays; conditions: source organism: Vaccinia virus WR
HLA-B*15:01 [9] = test: as above; conditions: source organism: Vaccinia virus WR
HLA-A*02:01 [10] = test: IEDB peptide-MHC binding, purified MHC/direct/fluorescence; filed as Kd, often an IC50 or EC50 that approximates it; ≥ and ≤ were set here for values at or beyond the usual limits of such assays
HLA-A*02:19 = test: as above; conditions: source organism: Convict Creek 107 virus
HLA-A*03:01 [11] = test: as above
HLA-A*26:01 [12] = test: IEDB peptide-MHC binding, purified MHC/competitive/fluorescence; filed as Kd, often an IC50 or EC50 that approximates it; ≥ and ≤ were set here for values at or beyond the usual limits of such assays; conditions: source organism: Orthohantavirus sinnombreense
HLA-B*15:17 = test: as above; conditions: source organism: Orthohantavirus sinnombreense
HLA-B*18:01 [13] = test: as above; conditions: source organism: Orthohantavirus sinnombreense
HLA-B*27:03 = test: as above; conditions: source organism: Orthohantavirus sinnombreense
HLA-B*39:01 = test: as above; conditions: source organism: Orthohantavirus sinnombreense
HLA-B*46:01 = test: as above; conditions: source organism: Orthohantavirus sinnombreense
HLA-B*51:01 = test: as above; conditions: source organism: Orthohantavirus sinnombreense
HLA-B*57:01 = test: as above; conditions: source organism: Orthohantavirus sinnombreense
HLA-A*30:01 = test: IEDB peptide-MHC binding, purified MHC/competitive/radioactivity; filed as Kd, often an IC50 or EC50 that approximates it; ≥ and ≤ were set here for values at or beyond the usual limits of such assays; conditions: source organism: Vaccinia virus WR
HLA-A*32:01 = test: as above; conditions: source organism: Vaccinia virus WR
HLA-B*48:01 = test: IEDB peptide-MHC binding, purified MHC/direct/fluorescence; filed as Kd, often an IC50 or EC50 that approximates it; ≥ and ≤ were set here for values at or beyond the usual limits of such assays
HLA-A*01:01 = test: as above; conditions: source organism: Escherichia coli
HLA-A*11:01 = test: as above; conditions: source organism: Salmonella enterica
HLA-A*24:03 = test: as above; conditions: source organism: Salmonella enterica
HLA-A*26:01 [14] = test: as above; conditions: source organism: Salmonella enterica
HLA-A*31:01 = test: as above; conditions: source organism: Salmonella enterica
HLA-A*69:01 = test: as above; conditions: source organism: Salmonella enterica
HLA-B*07:02 = test: as above; conditions: source organism: Salmonella enterica
HLA-B*08:01 [15] = test: as above; conditions: source organism: Salmonella enterica
HLA-B*15:01 [16] = test: as above; conditions: source organism: Salmonella enterica
HLA-B*27:05 = test: as above; conditions: source organism: Salmonella enterica
HLA-B*40:01 [17] = test: as above; conditions: source organism: Salmonella enterica
HLA-B*58:01 = test: as above; conditions: source organism: Salmonella enterica
[18] = source organism: Dengue virus 1 Singapore/S275/1990
[19] = source organism: Vaccinia virus WR
[20] = source organism: Dengue virus 2 Jamaica/1409/1983
[21] = source organism: Sudan ebolavirus
[22] = source organism: Zaire ebolavirus
[23] = source organism: Dengue virus 4 Philippines/H241/1956
[24] = source organism: Dengue virus 1 Brazil/97-11/1997
[25] = source organism: Dengue virus 3 Martinique/1243/1999
[26] = source organism: Vaccinia virus Copenhagen
[27] = source organism: Salmonella enterica

Sequence: AELTGYGTV
- Kd (HLA-B*18:01 [1]): 472 nM
- Kd (HLA-B*44:02 [2]; source organism: Dengue virus): ≥ 20000 nM

Sequence: AENHHHATM
- Kd (HLA-B*40:01 [3]): 10.1 nM
- Kd (HLA-B*44:02 [4]; [18]): 27.3 nM
- Kd (HLA-B*44:03; [18]): 115 nM

Sequence: ASTNLGSSF
- Kd (HLA-B*15:03): 164 nM

Sequence: CMIRWLGGI
- IC50 (HLA-A*02:01 [5]; [19]): 428 nM
- IC50 (HLA-A*24:02; [19]): 4000 nM
- IC50 (HLA-B*15:01 [6]; [19]): 30300 nM

Sequence: CMKTFFGWK
- Kd (HLA-A*03:01 [7]; source organism: Influenza A virus (A/Hong Kong/1774/99(H3N2))): 35.4 nM

Sequence: EEEQTLTILI
- Kd (HLA-B*44:02 [4]; [20]): 17.3 nM
- Kd (HLA-B*44:03; [20]): 128 nM

Sequence: ELYMYFNHV
- Kd (HLA-B*08:01 [8]): 238 nM
- Kd (HLA-B*15:01 [9]): 1330 nM
- Kd (HLA-B*15:03): 414 nM

Sequence: EQFVGTNSI
- Kd (HLA-B*15:03): 194 nM

Sequence: FINMTGNHF
- Kd (HLA-B*15:01 [9]): 16.1 nM
- Kd (HLA-B*15:03): 34.2 nM

Sequence: FKINIFMAF
- Kd (HLA-B*08:01 [8]): 10600 nM
- Kd (HLA-B*15:03): 10.2 nM

Sequence: FQLNDTIHL
- IC50 (HLA-A*02:01 [5]; [21]): 1520 nM
- IC50 (HLA-A*24:02; [21]): 36900 nM
- IC50 (HLA-B*15:01 [6]; [21]): 50500 nM

Sequence: FQQTNAMVT
- IC50 (HLA-A*02:01 [5]; [22]): 11000 nM
- IC50 (HLA-B*15:01 [6]; [22]): 36100 nM

Sequence: GEGLHRLGY
- Kd (HLA-B*44:02 [4]; [23]): 11.5 nM
- Kd (HLA-B*44:03; [23]): 17.6 nM

Sequence: IETPNELSF
- Kd (HLA-B*15:03): 288 nM

Sequence: KEAVEDERFW
- Kd (HLA-B*44:02 [4]; [24]): 45.4 nM
- Kd (HLA-B*44:03; [24]): 305 nM

Sequence: KEEHNSTWHY
- Kd (HLA-B*44:02 [4]; [25]): 183 nM
- Kd (HLA-B*44:03; [25]): 10500 nM

Sequence: KKVYTFFKF
- Kd (HLA-B*15:03): 3.63 nM

Sequence: KLHRYIDSM
- Kd (HLA-A*02:01 [10]; source organism: Orthohantavirus andesense): 34.2 nM
- Kd (HLA-A*02:19): ≥ 20000 nM
- Kd (HLA-A*03:01 [11]; source organism: Convict Creek 107 virus): ≥ 20000 nM
- Kd (HLA-A*26:01 [12]): ≥ 20000 nM
- Kd (HLA-B*15:17): ≥ 20000 nM
- Kd (HLA-B*18:01 [13]): ≥ 20000 nM
- Kd (HLA-B*27:03): ≥ 20000 nM
- Kd (HLA-B*39:01): ≥ 20000 nM
- Kd (HLA-B*46:01): ≥ 20000 nM
- Kd (HLA-B*51:01): ≥ 20000 nM
- Kd (HLA-B*57:01): ≥ 20000 nM

Sequence: KLLSHFYPA
- Kd (HLA-A*30:01): 3300 nM
- Kd (HLA-A*32:01): 129 nM
- Kd (HLA-B*08:01 [8]): 81 nM
- Kd (HLA-B*15:01 [9]): 38.7 nM
- Kd (HLA-B*15:03): 5.4 nM

Sequence: KMSFLPIIF
- Kd (HLA-A*32:01): 6.72 nM
- Kd (HLA-B*15:03): 0.08 nM

Sequence: KQYKFYNQI
- Kd (HLA-A*30:01): 1340 nM
- Kd (HLA-A*32:01): 10600 nM
- Kd (HLA-B*08:01 [8]): ≥ 77700 nM
- Kd (HLA-B*15:01 [9]): 6630 nM
- Kd (HLA-B*15:03): 121 nM

Sequence: LEFNTPFVF
- Kd (HLA-B*15:03): 10.4 nM

Sequence: LHHAYQGDY
- IC50 (HLA-B*15:01 [6]; [22]): ≥ 206000 nM

Sequence: LQYVHINEL
- Kd (HLA-B*15:03): 3.66 nM

Sequence: LYRPNIPLK
- Kd (HLA-A*30:01): 3.45 nM
- Kd (HLA-A*32:01): ≥ 77800 nM
- Kd (HLA-B*08:01 [8]): ≥ 33300 nM
- Kd (HLA-B*15:01 [9]): ≥ 55800 nM
- Kd (HLA-B*15:03): ≥ 69200 nM

Sequence: MEDKTPVESW
- Kd (HLA-B*44:02 [4]; [20]): 33.2 nM
- Kd (HLA-B*44:03; [20]): 70.9 nM

Sequence: NERGKSLLF
- Kd (HLA-B*44:02 [4]; [25]): 467 nM
- Kd (HLA-B*44:03; [25]): 122 nM

Sequence: NYLFGGFST
- IC50 (HLA-A*02:01 [5]; source organism: Variola virus): 23400 nM
- IC50 (HLA-A*24:02; source organism: Variola virus): 1650 nM
- IC50 (HLA-B*15:01 [6]; source organism: Variola virus): ≥ 289000 nM

Sequence: RMLHLSQMH
- Kd (HLA-A*03:01 [7]; source organism: Bacillus anthracis str. A0488): 25.8 nM

Sequence: RQMVNDMIF
- Kd (HLA-B*15:03): 1.25 nM

Sequence: RRLAATTEK
- Kd (HLA-B*48:01; source organism: West Nile virus): ≥ 20000 nM

Sequence: RTRNMFRKK
- Kd (HLA-A*30:01): 0.0892 nM
- Kd (HLA-B*15:03): ≥ 51200 nM

Sequence: SEMIIPKIY
- Kd (HLA-B*44:02 [4]; [18]): 8.61 nM
- Kd (HLA-B*44:03; [18]): 12.8 nM

Sequence: SMFLMTATL
- IC50 (HLA-B*15:01 [6]; source organism: Variola virus): 1120 nM

Sequence: SMKTVFQVF
- Kd (HLA-B*08:01 [8]): 179 nM
- Kd (HLA-B*15:01 [9]): 1.57 nM
- Kd (HLA-B*15:03): 3.81 nM

Sequence: SQYANCSSI
- IC50 (HLA-A*24:02; [26]): ≥ 82700 nM
- IC50 (HLA-B*15:01 [6]; [26]): 7410 nM

Sequence: VGRVNPGTY
- IC50 (HLA-A*24:02; source organism: Variola virus): 5450 nM
- IC50 (HLA-B*15:01 [6]; source organism: Variola virus): 29700 nM

Sequence: VINRLGADL
- IC50 (HLA-A*02:01 [5]; [19]): ≥ 76600 nM
- IC50 (HLA-B*15:01 [6]; [19]): ≥ 105000 nM

Sequence: VVANVIGLS
- IC50 (HLA-A*02:01 [5]; [26]): 26600 nM
- IC50 (HLA-B*15:01 [6]; [26]): 46900 nM

Sequence: VVNYEAGEW
- IC50 (HLA-A*24:02; [22]): ≥ 75500 nM
- IC50 (HLA-B*15:01 [6]; [22]): ≥ 119000 nM

Sequence: WEGNPGRFW
- Kd (HLA-B*44:02 [4]; [20]): 12.9 nM
- Kd (HLA-B*44:03; [20]): 89.4 nM

Sequence: WKWFYKKYL
- Kd (HLA-B*48:01; source organism: Campylobacter jejuni subsp. jejuni HB93-13): 271 nM

Sequence: WTDLYTSMS
- Kd (HLA-A*01:01): 81.7 nM
- Kd (HLA-A*02:01 [10]; [27]): ≥ 20000 nM
- Kd (HLA-A*03:01 [11]; [27]): ≥ 20000 nM
- Kd (HLA-A*11:01): ≥ 20000 nM
- Kd (HLA-A*24:03): ≥ 20000 nM
- Kd (HLA-A*26:01 [14]): ≥ 20000 nM
- Kd (HLA-A*31:01): ≥ 20000 nM
- Kd (HLA-A*69:01): ≥ 20000 nM
- Kd (HLA-B*07:02): ≥ 20000 nM
- Kd (HLA-B*08:01 [15]): ≥ 20000 nM
- Kd (HLA-B*15:01 [16]): ≥ 20000 nM
- Kd (HLA-B*27:05): ≥ 20000 nM
- Kd (HLA-B*40:01 [17]): ≥ 20000 nM
- Kd (HLA-B*44:02 [2]; [27]): ≥ 20000 nM
- Kd (HLA-B*58:01): ≥ 20000 nM

Sequence: YDEDNPYKTW
- Kd (HLA-B*44:02 [4]; [24]): 470 nM
